Measured values as given in patent US6476188.
Residue numbers refer to the chain shown, from its start.

B1: recombinant tau mutant hamster CK1ε (Arg178Cys) with N-terminal S•Tag and His-Tag fusions, captured on S-protein agarose (protein)
chain: MELRVGNKYRLGRKIGSGSFGDIYLGANIASGEEVAIKLECVKTKHPQLHIESKFYKMMQGGVGIPSIKWCGAEGDYNVMVMELLGPSLEDLFNFCSRKFSLKTVLLLADQMISRIEYIHSKNFIHRDVKPDNFLMGLGKKGNLVYIIDFGLAKKYRDARTHQHIPYRENKNLTGTACYASINTHLGIEQSRRDDLESLGYVLMYFNLGSLPWQGLKAATKRQKYERISEKKMSTPIEVLCKGYPSEFSTYLNFCRSLRFDDKPDYSYLRQLFRNLFHRQGFSYDYVFDWNMLKFGAARNPEDVDRERREHEREERMGQLRGSATRALPPGPPTGATANRLRSAAEPVASTPASRIQQAGNTSPRAISRADRERKVSMRLHRGAPANVSSSDLTGRQEVSRISASQTSVPFDHLGK
B2: recombinant wild-type hamster CK1ε with N-terminal S•Tag and His-Tag fusions, captured on S-protein agarose (protein)
chain: B1 chain with C178R
B3: DOUBLETIME protein (DBT), Drosophila, in vitro translated from dbt cDNA P12, 35S-labeled (protein)
chain: MELRVGNKYRLGRKIGSGSFGDIYLGTTINTGEEVAIKLECIRTKHPQLHIESKFYKTMQGGIGIPRIIWCGSEGDYNVMVMELLGPSLEDLFNFCSRRFSLKTVLLLADQMISRIDYIHSRDFIHRDIKPDNFLMGLGKKGNLVYIIDFGLAKKFRDARSLKHIPYRENKNLTGTARYASINTHLGIEQSRRDDLESLGYVLMYFNLGALPWQGLKAANKRQKYERISEKKLSTSIVVLCKGFPSEFVNYLNFCRQMHFDQRPDYCHLRKLFRNLFHRLGFTYDYVFDWNLLKFGGPRNPQAIQQAQDGADGQAGHDAVAAAAAVAAAAAASSHQQQQHKVNAALGGGGGSRAQQQLQGGQTLAMLGGNGGGNGSQLIGGNGLNMDDSMAATNSSRPPYDTPERRPSIRMRQGGGGGGGGVGVGGMQSGGGGGGVGNAK

Key:
[1] = target: phosvitin (Sigma #P-1253)
[2] = target: mouse PERIOD2 (mPER2), in vitro translated, 35S-methionine-labeled, O54943
[3] = target: mouse PERIOD1 (mPER1), in vitro translated, 35S-methionine-labeled, O35973
[4] = target: dephosphorylated α-casein (Sigma #C-8032)
[5] = target: PERIOD (PER) protein, Drosophila, expressed in S2 cells from hs-per, P07663

Sequence of mouse PERIOD2 (mPER2), in vitro translated, 35S-methionine-labeled, O54943 (O54943 whole entry, looked up): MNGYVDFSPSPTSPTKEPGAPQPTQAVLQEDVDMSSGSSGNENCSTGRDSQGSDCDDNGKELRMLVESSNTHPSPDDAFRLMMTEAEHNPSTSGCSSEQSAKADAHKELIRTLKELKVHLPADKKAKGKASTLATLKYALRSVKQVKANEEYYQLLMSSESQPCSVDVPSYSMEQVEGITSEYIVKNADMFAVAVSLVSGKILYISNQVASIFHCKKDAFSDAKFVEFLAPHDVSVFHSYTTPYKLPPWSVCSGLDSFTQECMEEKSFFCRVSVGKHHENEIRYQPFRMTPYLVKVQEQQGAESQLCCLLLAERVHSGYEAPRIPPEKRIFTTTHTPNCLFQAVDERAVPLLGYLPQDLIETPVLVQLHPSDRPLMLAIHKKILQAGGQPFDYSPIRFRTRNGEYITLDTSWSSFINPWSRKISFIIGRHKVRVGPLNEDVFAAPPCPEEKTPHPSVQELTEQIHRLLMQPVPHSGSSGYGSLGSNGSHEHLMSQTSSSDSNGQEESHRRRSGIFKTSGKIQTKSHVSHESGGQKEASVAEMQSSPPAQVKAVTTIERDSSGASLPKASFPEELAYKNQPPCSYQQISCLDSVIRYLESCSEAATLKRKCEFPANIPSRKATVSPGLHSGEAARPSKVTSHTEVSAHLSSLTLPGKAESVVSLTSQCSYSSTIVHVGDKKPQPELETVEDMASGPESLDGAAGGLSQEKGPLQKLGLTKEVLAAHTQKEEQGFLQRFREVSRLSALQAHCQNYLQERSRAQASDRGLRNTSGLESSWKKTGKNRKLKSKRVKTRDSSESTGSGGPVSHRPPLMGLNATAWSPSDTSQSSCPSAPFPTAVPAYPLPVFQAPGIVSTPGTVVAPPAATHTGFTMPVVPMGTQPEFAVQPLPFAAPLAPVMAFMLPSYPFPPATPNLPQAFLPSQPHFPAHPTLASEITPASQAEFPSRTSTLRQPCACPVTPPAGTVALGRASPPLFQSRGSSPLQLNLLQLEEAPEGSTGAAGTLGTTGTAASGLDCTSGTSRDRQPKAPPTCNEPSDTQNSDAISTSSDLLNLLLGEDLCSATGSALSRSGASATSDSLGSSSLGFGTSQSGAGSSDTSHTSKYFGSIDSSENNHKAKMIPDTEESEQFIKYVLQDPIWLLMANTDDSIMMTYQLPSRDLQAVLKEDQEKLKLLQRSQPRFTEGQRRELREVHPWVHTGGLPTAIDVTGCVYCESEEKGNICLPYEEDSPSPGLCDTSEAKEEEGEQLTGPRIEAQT
Sequence of mouse PERIOD1 (mPER1), in vitro translated, 35S-methionine-labeled, O35973 (O35973 whole entry, looked up): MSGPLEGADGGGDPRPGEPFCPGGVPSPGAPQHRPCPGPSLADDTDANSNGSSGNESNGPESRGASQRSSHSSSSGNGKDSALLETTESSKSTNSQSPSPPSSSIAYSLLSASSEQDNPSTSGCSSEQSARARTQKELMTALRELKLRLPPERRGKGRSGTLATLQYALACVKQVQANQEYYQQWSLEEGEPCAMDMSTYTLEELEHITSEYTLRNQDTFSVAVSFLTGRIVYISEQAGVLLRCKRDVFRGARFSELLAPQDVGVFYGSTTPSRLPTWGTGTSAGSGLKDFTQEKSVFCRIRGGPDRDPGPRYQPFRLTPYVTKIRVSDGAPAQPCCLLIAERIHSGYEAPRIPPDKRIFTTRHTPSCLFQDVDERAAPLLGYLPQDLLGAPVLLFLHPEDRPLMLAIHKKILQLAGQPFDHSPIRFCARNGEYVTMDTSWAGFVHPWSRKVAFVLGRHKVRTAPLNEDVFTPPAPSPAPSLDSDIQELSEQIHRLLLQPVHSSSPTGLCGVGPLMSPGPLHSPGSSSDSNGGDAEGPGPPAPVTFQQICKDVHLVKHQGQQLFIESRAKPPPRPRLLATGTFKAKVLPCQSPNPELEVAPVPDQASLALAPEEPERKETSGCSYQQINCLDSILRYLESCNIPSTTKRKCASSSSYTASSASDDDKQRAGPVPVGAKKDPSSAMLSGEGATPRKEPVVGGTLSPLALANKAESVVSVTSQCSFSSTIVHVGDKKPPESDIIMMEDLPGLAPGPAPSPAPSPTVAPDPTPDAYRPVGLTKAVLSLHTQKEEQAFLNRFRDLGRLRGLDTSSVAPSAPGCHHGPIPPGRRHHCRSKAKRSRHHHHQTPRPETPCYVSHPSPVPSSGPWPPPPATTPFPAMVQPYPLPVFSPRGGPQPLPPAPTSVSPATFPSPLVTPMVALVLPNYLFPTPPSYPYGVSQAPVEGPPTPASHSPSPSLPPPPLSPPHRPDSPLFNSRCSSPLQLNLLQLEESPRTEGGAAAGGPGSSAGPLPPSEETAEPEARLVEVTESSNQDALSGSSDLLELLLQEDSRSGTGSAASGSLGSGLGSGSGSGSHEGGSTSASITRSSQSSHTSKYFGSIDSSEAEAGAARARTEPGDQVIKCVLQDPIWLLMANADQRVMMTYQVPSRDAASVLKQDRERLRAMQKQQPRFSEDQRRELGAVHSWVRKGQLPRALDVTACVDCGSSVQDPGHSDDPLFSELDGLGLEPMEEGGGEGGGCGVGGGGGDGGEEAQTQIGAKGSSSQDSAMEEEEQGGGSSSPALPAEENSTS

| Protein | Km [1] | Vmax [1] | fold reduction in Vmax against wild-type [1] | affinity kinase assay, phosphorylation of bound substrate [2] | affinity kinase assay, phosphorylation of bound substrate [3] | 32P signal intensity of phosphorylated substrate, wild-type relative to tau enzyme [4] | 32P signal intensity of phosphorylated substrate, wild-type relative to tau enzyme [1] | phosphorylation of PER in vitro [5] |
| --- | --- | --- | --- | --- | --- | --- | --- | --- |
| B1 | a Km of 29.8 µM | a Vmax of 52.5 µmoles/µg/5 minutes | the tau mutation causes an eight-fold reduction in the Vmax of CK1ε | there is a clear attenuation in phosphorylation of mPER1 and mPER2 by the tau mutant enzyme as compared to wild type CK1ε | there is a clear attenuation in phosphorylation of mPER1 and mPER2 by the tau mutant enzyme as compared to wild type CK1ε | – | – | – |
| B2 | the Km is 55.6 µM | the Vmax is 400 µmoles/µg/5 minutes | – | this affinity kinase assay demonstrates that CK1ε phosphorylates mammalian PERIOD proteins | this affinity kinase assay demonstrates that CK1ε phosphorylates mammalian PERIOD proteins | The wild-type CK1ε kinase produces an 8-fold and 4-fold greater signal intensity, for phosvitin and α-casein respectively, relative to that produced by the tau enzyme. | The wild-type CK1ε kinase produces an 8-fold and 4-fold greater signal intensity, for phosvitin and α-casein respectively, relative to that produced by the tau enzyme. | – |
| B3 | – | – | – | – | – | – | – | the formation of a PER/DBT complex leads to DBT-dependent phosphorylation of PER in vitro |
